This note sets out measurements from paper PMC5009806 (2016).

A word on the Kd: it is the constant that tells how readily two partners part at equilibrium. Low values mean higher affinity, high ones lower affinity.

This test addresses amyloid beta monomer (Homo sapiens, UniProt P05067). Nature of the test: SPR. A general note: Surface plasmon resonance follows binding to a sensor surface in real time, without labels.

B1: Gantenerumab (antibody, V domains shown)
VH: QVELVESGGGLVQPGGSLRLSCAASGFTFSSYAMSWVRQAPGKGLEWVSAINASGTRTYYADSVKGRFTISRDNSKNTLYLQMNSLRAEDTAVYYCARGKGNTHKPYGYVRYFDVWGQGTLVTVSS
VL: DIVLTQSPATLSLSPGERATLSCRASQSVSSSYLAWYQQKPGQAPRLLIYGASSRATGVPARFSGSGSGTDFTLTISSLEPEDFATYYCLQIYNMPITFGQGTKVEIK
In the case of B1, binding was put at a Kd of 18 nM.
